The source of these data is US20190134089A1 (GEORGIA STATE UNIVERSITY RESEARCH FOUNDATION, published 2019).

To fix the notation:
B1: murine signal regulatory protein α (SIRPα) on macrophages (receptor, mouse, UniProt P97797 32-513, looked up)
chain: KELKVTQPEKSVSVAAGDSTVLNCTLTSLLPVGPIRWYRGVGPSRLLIYSFAGEYVPRIRNVSDTTKRNNMDFSIRISNVTPADAGIYYCVKFQKGSSEPDTEIQSGGGTEVYVLAKPSPPEVSGPADRGIPDQKVNFTCKSHGFSPRNITLKWFKDGQELHPLETTVNPSGKNVSYNISSTVRVVLNSMDVNSKVICEVAHITLDRSPLRGIANLSNFIRVSPTVKVTQQSPTSMNQVNLTCRAERFYPEDLQLIWLENGNVSRNDTPKNLTKNTDGTYNYTSLFLVNSSAHREDVVFTCQVKHDQQPAITRNHTVLGFAHSSDQGSMQTFPDNNATHNWNVFIGVGVACALLVVLLMAALYLLRIKQKKAKGSTSSTRLHEPEKNAREITQVQSLIQDTNDINDITYADLNLPKEKKPAPRAPEPNNHTEYASIETGKVPRPEDTLTYADLDMVHLSRAQPAPKPEPSFSEYASVQVQRK
notes: whole, on cells; Endogenous protein of WT mouse macrophages; In the co-immunoprecipitations it is tyrosine-phosphorylated in its cytoplasmic ITIMs (SIRPα pY); also called murine SIRPα; surface signal regulatory protein α

Assay [1] deals with T1, SHP-1 (SH2-containing tyrosine phosphatase) of mouse macrophages (mouse, UniProt P29351 1-595, limits assumed).
T1 construct: Detected by Western blot in SIRPα immunoprecipitates
Description: SIRPα immunoprecipitation from LPS- or IL-17-treated WT PEM lysates, WB for SHP-1. As for the experimental part: FIGS. 4A-4E include data related to our experiments on macrophage phagocytic plasticity. FIG. 4A is a panel of illustrative line graphs showing that IL-10 inhibits macrophage phagocytosis toward “self.” PEMs were treated with LPS and activating cytokines along with various concentrations of IL-10 before testing their ability to phagocytose RBCs. FIG. 4B illustrates the phagocytic plasticity of WT red pulp macrophages. […] Treatments of cultured macrophages with LPS and IL-17 re-elicited their phagocytosis toward RBCs. […] Error bars are ±SEM. ***P<0.001 vs. freshly isolated splenic macrophages. FIG. 4D includes microscopic images of RBC phagocytosis by LPS- and IL-17-treated splenic macrophages. […] WT PEMs treated with LPS or IL-17 were further treated with Cd47⁺ RBCs or Cd47-AP (10 min, 37° C.) followed by cell lysis, SIRPα immunoprecipitation, and WB detection of SIRPα phosphorylation (SIRPα^pY) and SHP-1 association. Data presented in each panel represent at least three independent experiments with n≥4, if applicable.

Assay [2] addresses B1. Put plainly: note on the reagent used to ligate SIRPα on WT macrophages (FIG. 10).

T1 sequence (P29351 whole entry): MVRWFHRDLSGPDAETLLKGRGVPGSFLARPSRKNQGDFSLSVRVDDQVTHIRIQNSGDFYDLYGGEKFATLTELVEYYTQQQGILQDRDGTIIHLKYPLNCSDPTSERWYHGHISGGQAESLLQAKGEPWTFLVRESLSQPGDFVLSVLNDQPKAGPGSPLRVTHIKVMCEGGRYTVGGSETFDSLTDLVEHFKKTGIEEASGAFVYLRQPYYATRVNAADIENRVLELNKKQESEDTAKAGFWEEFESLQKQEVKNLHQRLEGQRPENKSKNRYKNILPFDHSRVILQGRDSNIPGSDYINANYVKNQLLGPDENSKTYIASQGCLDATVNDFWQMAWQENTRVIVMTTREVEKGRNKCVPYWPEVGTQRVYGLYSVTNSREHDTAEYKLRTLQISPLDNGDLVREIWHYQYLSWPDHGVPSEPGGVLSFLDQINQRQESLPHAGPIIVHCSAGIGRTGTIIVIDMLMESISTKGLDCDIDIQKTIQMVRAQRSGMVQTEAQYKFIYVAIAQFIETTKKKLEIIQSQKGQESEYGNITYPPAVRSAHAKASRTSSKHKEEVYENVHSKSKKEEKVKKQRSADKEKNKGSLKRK

As for B1, the binding result in assay [1] is recorded as “binds”.

B2: mCD47-AP, soluble murine CD47 extracellular domain fusion protein (other, mouse, UniProt Q61735 19-140, looked up, not shown: large carriers)
chain: QLLFSNVNSIEFTSCNETVVIPCIVRNVEAQSTEEMFVKWKLNKSYIFIYDGNKNSTTTDQNFTSAKISVSDLINGIASLKMDKRDAMVGNYTCEVTELSREGKTVIELKNRTVSWFSPNEK
notes: extracellular domain
On to B2, for which, in assay [2], the binding result is “binds”.
